Data published in patent US20220064316A1 (published 2022).

B1: BCMA-Fc antigen (R&D Systems) (Fc fusion)
chain: MLQMAGQCSQNEYFDSLLHACIPCQLRCSSNTPPLTCQRYCNASVTNSVKGTNA
notes: also called BCMA fc fusion protein (R&D Systems, cat #193-BC-050); recombinant BCMA-Fc; not shown: Fc portion of the bought fusion protein
B2: BCMA-13 scFv (139112) (scFv)
scFv: QVQLVESGGGLVQPGGSLRLSCAVSGFALSNHGMSWVRRAPGKGLEWVSGIVYSGSTYYAASVKGRFTISRDNSRNTLYLQMNSLRPEDTAIYYCSAHGGESDVWGQGTTVTVSSASGGGGSGGRASGGGGSDIRLTQSPSPLSASVGDRVTITCQASEDINKFLNWYHQTPGKAPKLLIYDASTLQTGVPSRFSGSGSGTDFTLTINSLQPEDIGTYYCQQYESLPLTFGGGTKVEIK
notes: also called B13
B3: BCMA-15 scFv (139114) (scFv)
scFv: EVQLVESGGGLVQPGGSLRLSCAVSGFALSNHGMSWVRRAPGKGLEWVSGIVYSGSTYYAASVKGRFTISRDNSRNTLYLQMNSLRPEDTAIYYCSAHGGESDVWGQGTTVTVSSASGGGGSGGRASGGGGSEIVLTQSPGTLSLSPGERATLSCRASQSIGSSSLAWYQQKPGQAPRLLMYGASSRASGIPDRFSGSGSGTDFTLTISRLEPEDFAVYYCQQYAGSPPFTFGQGTKVEIK
notes: also called B15; BMCA-15
B4: BCMA-4 scFv (139103) (scFv)
scFv: QVQLVESGGGLVQPGRSLRLSCAASGFTFSNYAMSWVRQAPGKGLGWVSGISRSGENTYYADSVKGRFTISRDNSKNTLYLQMNSLRDEDTAVYYCARSPAHYYGGMDVWGQGTTVTVSSASGGGGSGGRASGGGGSDIVLTQSPGTLSLSPGERATLSCRASQSISSSFLAWYQQKPGQAPRLLIYGASRRATGIPDRFSGSGSGTDFTLTISRLEPEDSAVYYCQQYHSSPSWTFGQGTKLEIK
notes: also called B4

Legend:
BCMA-10 CAR (139109) = target: T1, BCMA-10 CAR (139109); assay: flow cytometry; BCMA-Fc antigen staining of CAR-transduced SupT1 cells
T1 construct: also called B10; EG63-98LB

[1] = target: T2, BCMA (recombinant, form not given) (UniProt Q02223 1-54, limits assumed); assay: affinity assay (RU biosensor), 1:1 Binding fit
T2 construct: one entry is used for both; also called Bio-BCMA; BCMA substrate
T2 sequence (looked up): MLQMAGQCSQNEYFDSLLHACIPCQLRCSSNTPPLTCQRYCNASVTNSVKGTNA

Row | Binder | binding result (BCMA-10 CAR (139109)) | Kd [1] [nM] | koff [1] [s⁻¹] | kon [1] [M⁻¹ s⁻¹]
1 | B1 | binds | – | – | –
2 | B2 | – | 24.5 | 0.00161 | 65600
3 | B3 | – | 9.3 | 0.00187 | 201000
4 | B4 | – | 1 | 0.0006 | 617000
